Results: article PMC3923644
Read-outs that look alike come from different tables or passages of the source.

B1: nCaRE-B SIRT1-B (dsDNA)
DNA 1: TTTTTGAGACGGAGTTTCGCTCTTG
DNA 2: CAAGAGCGAAACTCCGTCTCAAAAA
B2: nCaRE-B SIRT1-B (biotinylated) (dsDNA)
DNA 1: TTTTTGAGACGGAGTTTCGCTCTTG
DNA 2: CAAGAGCGAAACTCCGTCTCAAAAA
B3: nCaRE-B SIRT1-B mutated (biotinylated) (dsDNA)
DNA 1: TTTTTGCTAAGGAGCGTCGCTCTTG
DNA 2: CAAGAGCGACGCTCCTTAGCAAAAA
B4: nCaRE-B SIRT1-A (dsDNA)
DNA 1: TTTTTGAGACAGAGTTTCACTCTTG
DNA 2: CAAGAGTGAAACTCTGTCTCAAAAA

Assays:
APE1 NΔ33 [1] = molecular target: T1, APE1 NΔ33 (Homo sapiens, UniProt P27695 34-318, del1-33); assay: EMSA
APE1 NΔ33 [2] = molecular target: T1, APE1 NΔ33; assay: SPR
APE1 WT [3] = molecular target: T2, APE1 WT (Homo sapiens, UniProt P27695 1-318); assay: SPR
APE1 WT [4] = molecular target: T2, APE1 WT; assay: SPR; remark: listed apart in the source
APE1 WT [5] = molecular target: T2, APE1 WT; assay: EMSA

T2 sequence (P27695 whole entry): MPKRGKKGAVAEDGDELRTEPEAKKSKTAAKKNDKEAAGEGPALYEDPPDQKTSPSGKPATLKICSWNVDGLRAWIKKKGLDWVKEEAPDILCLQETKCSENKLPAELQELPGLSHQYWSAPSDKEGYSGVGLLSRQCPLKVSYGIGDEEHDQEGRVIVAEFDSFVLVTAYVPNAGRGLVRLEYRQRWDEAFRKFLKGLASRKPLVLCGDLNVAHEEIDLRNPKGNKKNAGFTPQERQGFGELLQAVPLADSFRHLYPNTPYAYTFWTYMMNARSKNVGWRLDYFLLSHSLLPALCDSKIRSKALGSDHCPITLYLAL
T1 sequence (P27695 34-318, stated change not applied): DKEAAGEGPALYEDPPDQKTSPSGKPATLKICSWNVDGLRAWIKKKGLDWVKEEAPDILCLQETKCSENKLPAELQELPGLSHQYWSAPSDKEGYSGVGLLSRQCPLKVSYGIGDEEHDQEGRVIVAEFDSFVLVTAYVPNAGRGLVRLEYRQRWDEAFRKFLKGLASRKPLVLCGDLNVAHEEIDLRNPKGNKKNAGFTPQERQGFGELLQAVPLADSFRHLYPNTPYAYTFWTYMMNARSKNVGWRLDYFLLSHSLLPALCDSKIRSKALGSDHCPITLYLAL

| Binder | binding result (APE1 NΔ33 [1]) | binding result (APE1 NΔ33 [2]) | Kd (APE1 WT [3]) [µM] | other results |
| --- | --- | --- | --- | --- |
| B1 | no binding | – | – | – |
| TTTTTTTTTTTTTTTTTTTTTTTT (ssDNA) [poly(dT) 24-mer] | – | no binding | 308 ± 3 | – |
| B2 | – | no binding | 3.9 ± 0.08 | – |
| B3 | – | – | – | Kd (APE1 WT [4]): 119 ± 8 µM |
| B4 | no binding | – | – | binding result (APE1 WT [5]): binds |
